In patent US20180298070A1, “PEPTIDE COMPOUND” (Takeda Pharmaceutical Company Limited, published 2018):
Non-standard residues stand in square brackets, D forms with d. Groups on a side chain read outwards from the residue. Primed or numbered codes have the meaning given here. No end group written: not given here. *: point of attachment. NMeY = CN[C@@H](Cc1ccc(O)cc1)C(=O)O; Stearoyl = CCCCCCCCCCCCCCCCCC(=O)*; Tridecanoyl = CCCCCCCCCCCCC(=O)*; αMeF = C[C@](N)(Cc1ccccc1)C(=O)O; Lauroyl = CCCCCCCCCCCC(=O)*; dIva = CC[C@@](C)(N)C(=O)O; Iva = CC[C@](C)(N)C(=O)O; PEG2′ = not defined here; Dda = not defined here; Hexanoyl = CCCCCC(=O)*; Aib = CC(C)(N)C(=O)O

T1: human GIPR (human), P48546
T1 chain: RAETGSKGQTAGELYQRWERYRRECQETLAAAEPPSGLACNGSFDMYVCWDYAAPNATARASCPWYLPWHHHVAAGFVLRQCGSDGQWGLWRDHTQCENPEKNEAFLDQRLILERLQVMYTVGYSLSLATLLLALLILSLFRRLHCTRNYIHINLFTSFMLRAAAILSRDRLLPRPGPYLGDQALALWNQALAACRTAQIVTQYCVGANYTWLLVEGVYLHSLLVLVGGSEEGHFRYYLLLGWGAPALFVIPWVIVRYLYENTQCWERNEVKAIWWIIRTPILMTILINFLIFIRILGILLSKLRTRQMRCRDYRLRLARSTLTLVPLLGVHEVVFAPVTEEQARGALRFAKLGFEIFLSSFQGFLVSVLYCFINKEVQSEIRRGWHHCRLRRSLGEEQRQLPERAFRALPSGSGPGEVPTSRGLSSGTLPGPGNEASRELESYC

T2: human GLP-1R (human), P43220
T2 chain: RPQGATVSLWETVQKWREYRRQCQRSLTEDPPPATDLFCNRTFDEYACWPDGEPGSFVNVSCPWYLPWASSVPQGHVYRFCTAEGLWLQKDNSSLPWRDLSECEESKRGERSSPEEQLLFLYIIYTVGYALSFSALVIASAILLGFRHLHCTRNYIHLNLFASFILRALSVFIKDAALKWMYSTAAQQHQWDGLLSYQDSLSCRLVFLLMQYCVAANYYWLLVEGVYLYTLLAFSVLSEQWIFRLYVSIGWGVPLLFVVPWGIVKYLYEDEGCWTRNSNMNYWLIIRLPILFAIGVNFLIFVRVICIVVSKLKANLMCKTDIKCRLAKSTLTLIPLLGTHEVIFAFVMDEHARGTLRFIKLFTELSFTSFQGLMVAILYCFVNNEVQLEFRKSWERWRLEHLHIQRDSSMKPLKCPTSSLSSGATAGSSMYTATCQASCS


Columns and labels:
[1] = target: T1, human GIPR (human), P48546
[2] = target: T2, human GLP-1R (human), P43220
[3] = target: T1, human GIPR (human), P48546; assay: [125I]GIP displacement, hGIPR VLP

Row | Binder | Agonist activity (EC50, M) [1] [M] | Agonist activity (EC50, M) [2] [M] | IC50 [3] [nM]
1 | Y[Aib]EGTFISDYSK([PEG2′-Dda])ALDRIAQQDFVNWLLAQRPSSGAPPPSR (ends and bridges not checked) [Compound 188] | 3e-12 | 2e-07 | 2.7
2 | Y[Aib]EGTFISDYSK([PEG2′-Lauroyl])ALDRIHQQDFVNWLLAQRPSSGAPPPSR (ends and bridges not checked) [Compound 180] | 1.9e-12 | > 1e-06 | 1.2
3 | Y[Aib]EGTVVSLYSI[Aib]LDKQAQ[Aib]EFVKWLLKGK(Pal) (ends and bridges not checked) [Compound 163] | 6.6e-09 | > 1e-06 | 50
4 | Y[Aib]EGTVVSLYSK(Pal)[Aib]LDKQAQ[Aib]EFVKWLLAQK (ends and bridges not checked) [Compound 159] | 7.8e-10 | > 1e-06 | 8.1
5 | Y[Aib]EGTFISDYSK([PEG2′-Tridecanoyl])ALDRIAQQDFVNWLLAQRPSSGAPPPSR (ends and bridges not checked) [Compound 185] | 7e-12 | 2.6e-08 | 19
6 | Y[Aib]EGTFISDYSK([PEG2′-Hexanoyl])ALDRIHQQDFVNWLLAQRPSSGAPPPSR (ends and bridges not checked) [Compound 179] | 3e-12 | > 1e-06 | 2.1
7 | Y[Aib]EGTFISDYSK([PEG(2)-Lauroyl])ALDRIAQ[Aib]NFVNWLLAQRPSSGAPPPS (ends and bridges not checked) [Compound 204] | 8.1e-12 | 9.5e-09 | 2.6
8 | Y[Aib]EGTFISDYSK([PEG(2)-Lauroyl])ALDRIAQQSFVNWLLAQRPSSGAPPPSR (ends and bridges not checked) [Compound 196] | 6.3e-12 | 4.4e-08 | 2.4
9 | Y[Aib]EGTVVSLYSI[Aib]LDKQAQ[Aib]EFVKWLLAQKK([PEG(2)-Pal]) (ends and bridges not checked) [Compound 160] | 9.5e-11 | > 1e-06 | 4.1
10 | Y[Aib]EGTFISDYSK([PEG2′-Stearoyl])ALDRIHQQDFVNWLLAQRPSSGAPPPSR (ends and bridges not checked) [Compound 181] | 9.2e-12 | > 1e-06 | 2.6
11 | Y[Aib]EGTFISDYSK([PEG(2)-Lauroyl])ALDRIAQQDFVN[αMeF]LLAQRPSSGAPPPSR (ends and bridges not checked) [Compound 194] | 3.5e-12 | 2.5e-08 | 2.3
12 | Y[Aib]EGTFISDYSK([PEG(2)-Lauroyl])ALDRIAQQSFVNWLLAQRPSSGAPPPS (ends and bridges not checked) [Compound 203] | 4.3e-12 | > 1e-06 | 2.1
13 | Y[Aib]EGTFISDYSK([PEG(2)-Lauroyl])ALDRIAQQD[αMeF]VNWLLAQRPSSGAPPPSR (ends and bridges not checked) [Compound 195] | 4.8e-12 | 1e-07 | 2.3
14 | Y[Aib]EGTFISDYSK([PEG(2)-Stearoyl])ALDRIHQQDFVNWLLAQRPSSGAPPPS (ends and bridges not checked) [Compound 176] | 1.9e-11 | > 1e-06 | 3.4
15 | Y[Aib]EGTFISDYSK([PEG2′-Lauroyl])ALDRIAQQSFVNW[Iva]LAQRPSSGAPPPS (not fully specified (C-terminus); ends and bridges not checked) [Compound 220] | 5.3e-12 | 9.9e-08 | 2.9
16 | Y[Aib]EGTFISDYSK([PEG(2)-Lauroyl])ALDR[Aib]AQQDFVNWLLAQRPSSGAPPPS (ends and bridges not checked) [Compound 205] | 3.4e-12 | 2.9e-08 | 1.6
17 | Y[Aib]EGTFISDYSK([PEG(2)-Ac])ALDRIHQQDFVNWLLAQRPSSGAPPPS (ends and bridges not checked) [Compound 173] | 4.4e-12 | > 1e-06 | 7.1
18 | Me-Y[Aib]EGTFISDYSIALDRIAQ[Aib]SFVNWLLAQRPSSGAPPPSR (not fully specified (residue 1, C-terminus); ends and bridges not checked) [Compound 136] | 2.2e-12 | 2.1e-07 | 2.1
19 | Y[Aib]EGTFISDYSK([PEG(2)-Lauroyl])ALDRIAQQDFVNWLLAQRPSSGAPPPS (ends and bridges not checked) [Compound 191] | 4.1e-12 | 5e-08 | 2.7
20 | [NMeY][Aib]EGTFISDYSIALDR[Aib]AQQSFVNWLLAQRPSSGAPPPSR (not fully specified (N-terminus, C-terminus); ends and bridges not checked) [Compound 137] | 1.7e-12 | > 1e-06 | 0.98
21 | Y[Aib]EGTFISDYSK([PEG(2)-Ac])ALDRIHQQDFVNWLLAQRPSSGAPPPSR (ends and bridges not checked) [Compound 178] | 4.2e-12 | > 1e-06 | 3
22 | Y[Aib]EGTVVSLYSK([PEG(2)-Pal])[Aib]LDKQAQ[Aib]EFVKWLLAQK (ends and bridges not checked) [Compound 158] | 9.9e-11 | > 1e-06 | 3.4
23 | Y[Aib]EGTFISDYSK([PEG(2)-Pal])ALDRIHQQDFVNWLLAQRPSSGAPPPSR (ends and bridges not checked) [Compound 177] | 7.2e-12 | > 1e-06 | 2.4
24 | Y[Aib]EGTFISDYSK([PEG(2)-Lauroyl])ALDRIAQ[Aib]NFVNWLLAQRPSSGAPPPSR (ends and bridges not checked) [Compound 197] | 5.6e-12 | 1.1e-08 | 2.6
25 | Ac-Y[Aib]EGTFISDYSI[dIva]LDRIAQ[Aib]NFVNW[Iva]LAQRPSSGAPPPSR (ends and bridges not checked) [Compound 152] | 2.8e-12 | > 1e-06 | 2.1
26 | Y[Aib]EGTFISDYSK([PEG(2)-Lauroyl])[dIva]LDRIAQQDFVNWLLAQRPSSGAPPPSR (ends and bridges not checked) [Compound 199] | 3.4e-11 | > 1e-06 | 2.4
27 | Y[Aib]EGTFISDYSK([PEG2′-Lauroyl])ALDR[Aib]HQ[Aib]NFVNW[Iva]LAQRPSSGAPPPS (not fully specified (C-terminus); ends and bridges not checked) [Compound 215] | 2.8e-12 | 1.5e-07 | 2.8
